Laboratory results reported in the supplement of paper PMC6757056.
± gives the standard deviation of the averaged measurements.

B1: library; a variant is named by its letters at N, in order (parent)
chain: GCUGUCACCGGUGUAUUACCCUAGUGGUCGACCGGUCUGAUGAGUCUNNNNNNAGACGAAACAGC

Tests used:
hypoxanthine [1] = variants of: B1; assay: FACS-Seq fitted mean relative fluorescence mCherry/BFP without ligand (log10 relative fluorescence); ligand: hypoxanthine (xanthine aptamer); higher = higher reporter protein expression; conditions: HEK293T, ligand present: no
Procedure, shortened: (§1)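 After lentiviral transduction, HEK293T library cells bearing an mCherry ribozyme-switch reporter and an EF1α-BFP marker were enriched. They were then held for 48 h with or without ligand and sorted by mCherry/BFP into 6 bins, and each bin's genomic DNA was PCR-amplified, barcoded and MiSeq-sequenced. Fluorescence is expressed as a normalized fitted mean: the normal mean of log10(mCherry/BFP) bin counts, scaled to five spiked-in control ribozymes.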

hypoxanthine [2] = variants of: B1; assay: normalized RNA/DNA level with ligand (relative to sTRSVctl = 100) (log10 (% of sTRSVctl)); ligand: hypoxanthine (xanthine aptamer); higher = less ribozyme self-cleavage, higher mRNA level; conditions: ligand concentration (+) RNA-Seq: 5 mM, HEK293T, reporter: mCherry (pCS4076), ligand present: yes
Procedure, shortened: (§2)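 Only sequences with at least 100 DNA reads were analyzed, from HEK293T cells transfected with 4 µg per 6-well well of ribozyme switch library plasmids 72 h before RNA extraction with EDTA. Any ligand was added 1 h before transfection. RNA level was defined as RNA over DNA reads, normalized to a spiked-in non-cleaving sequence or to the top sequences, then scaled and log-transformed. The top set was 25 sequences, and the scaling was ×100 followed by log10.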

hypoxanthine [3] = variants of: B1; assay: normalized RNA/DNA level without ligand (relative to sTRSVctl = 100) (log10 (% of sTRSVctl)); ligand: hypoxanthine (xanthine aptamer); higher = less ribozyme self-cleavage, higher mRNA level; conditions: HEK293T, reporter: mCherry (pCS4076), ligand present: no
Procedure, shortened: as §2

hypoxanthine [4] = variants of: B1; assay: FACS-Seq fitted mean relative fluorescence mCherry/BFP with ligand (log10 relative fluorescence); ligand: hypoxanthine (xanthine aptamer); ligand concentration (+) FACS-Seq: 5 mM; higher = higher reporter protein expression; conditions: HEK293T, ligand present: yes
Procedure, shortened: as §1

Row | Variant | FACS-Seq fitted mean (log10) (hypoxanthine [1]) | normalized RNA/DNA level with ligand (log10) (hypoxanthine [2]) | normalized RNA/DNA level without ligand (log10) (hypoxanthine [3]) | FACS-Seq fitted mean (log10) (hypoxanthine [4])
1 | AGGCGU | 0.521 ± 0.063 | 1.94 ± 0.02 | 1.67 ± 0.025 | 0.656 ± 0.01
2 | UGGGGA | 0.00194 ± 0.046 | 1.88 ± 0.041 | 1.48 ± 0.029 | 0.376 ± 0.0086
3 | UGUAGA | 0.133 ± 0.057 | 1.93 ± 0.043 | 1.55 ± 0.049 | 0.19 ± 0.011
4 | CGUGAA | -0.0193 ± 0.0065 | 1.87 ± 0.051 | 1.6 ± 0.029 | 0.148 ± 0.033
5 | AGUUAC | 0.497 ± 0.083 | 1.89 ± 0.011 | 1.775 ± 0.016 | 0.655 ± 0.14
6 | AGUUAG | 0.335 ± 0.052 | 1.8 ± 0.054 | 1.44 ± 0.078 | 0.569 ± 0.019
7 | AGUUAA | 0.799 ± 0.015 | 1.92 ± 0.04 | 1.76 ± 0.032 | 0.802 ± 0.094
8 | GGGGUA | 0.00434 ± 0.0088 | 1.94 ± 0.064 | 1.837 ± 0.0033 | 0.179 ± 0.094
9 | CGUUAA | 0.0819 ± 0.044 | 1.89 ± 0.019 | 1.62 ± 0.049 | 0.118 ± 0.02
10 | CGUCAA | 0.13 ± 0.025 | 1.96 ± 0.023 | 1.807 ± 0.016 | 0.3 ± 0.077
11 | AGGUAU | 0.648 ± 0.15 | 1.871 ± 0.013 | 1.69 ± 0.03 | 0.665 ± 0.12
12 | AGGUAC | 0.133 ± 0.061 | 1.893 ± 0.017 | 1.72 ± 0.02 | 0.0782 ± 0.049
13 | AGGUAG | 0.161 ± 0.019 | 1.73 ± 0.019 | 1.3 ± 0.047 | 0.537 ± 0.019
14 | AGGUAA | 0.414 ± 0.059 | 1.87 ± 0.022 | 1.6 ± 0.06 | 0.443 ± 0.069
15 | AGUCUG | 0.186 ± 0.024 | 1.9 ± 0.066 | 1.54 ± 0.029 | 0.414 ± 0.053
16 | AGUUCA | 0.179 ± 0.0096 | 1.91 ± 0.034 | 1.802 ± 0.0084 | 0.4165 ± 0.0023
17 | CGGGUU | -0.0176 ± 0.018 | 1.99 ± 0.027 | 1.89 ± 0.044 | -0.176 ± 0.051
18 | CGGGUA | 0.436 ± 0.033 | 1.94 ± 0.044 | 1.82 ± 0.068 | 0.64 ± 0.015
19 | GGUGAG | -0.242 ± 0.013 | 1.77 ± 0.063 | 1.29 ± 0.086 | 0.303 ± 0.045
20 | GGUGAU | 0.445 ± 0.047 | 1.93 ± 0.039 | 1.763 ± 0.012 | 0.5584 ± 0.0013
21 | GGUGAC | 0.507 ± 0.018 | 1.8808 ± 0.00054 | 1.798 ± 0.0044 | 0.543 ± 0.1
22 | AGUGAU | 0.509 ± 0.14 | 1.91 ± 0.065 | 1.77 ± 0.047 | 0.534 ± 0.019
23 | GGGUGA | 0.0881 ± 0.05 | 1.95 ± 0.033 | 1.71 ± 0.031 | 0.487 ± 0.0065
24 | GGGUGC | 0.296 ± 0.1 | 1.9 ± 0.036 | 1.52 ± 0.017 | 0.348 ± 0.011

Row | Variant | FACS-Seq fitted mean (log10) (hypoxanthine [1]) | normalized RNA/DNA level with ligand (log10) (hypoxanthine [2]) | normalized RNA/DNA level without ligand (log10) (hypoxanthine [3]) | FACS-Seq fitted mean (log10) (hypoxanthine [4])
25 | GGGUGG | -0.2387 ± 0.0022 | 1.91 ± 0.046 | 1.54 ± 0.05 | 0.3262 ± 0.0019
26 | AGUCCU | 0.767 ± 0.076 | 1.92 ± 0.085 | 1.895 ± 0.015 | 0.719 ± 0.034
27 | AGUAAA | 0.625 ± 0.22 | 1.891 ± 0.011 | 1.73 ± 0.063 | 0.59 ± 0.032
28 | AGUAAU | 0.85054 ± 0.00034 | 1.88 ± 0.03 | 1.85 ± 0.056 | 0.78 ± 0.058
29 | CGUAAA | 0.554 ± 0.028 | 1.865 ± 0.0031 | 1.65 ± 0.034 | 0.4915 ± 0.0049
30 | GGUAAU | 0.123 ± 0.061 | 1.918 ± 0.019 | 1.79 ± 0.035 | 0.314 ± 0.036
31 | GGUAAC | 0.447 ± 0.063 | 1.96 ± 0.067 | 1.82 ± 0.031 | 0.455 ± 0.018
32 | GGUAAG | 0.176 ± 0.027 | 1.744 ± 0.013 | 1.25 ± 0.054 | 0.6778 ± 0.0029
33 | GGUAAA | 0.652 ± 0.01 | 1.9 ± 0.022 | 1.69 ± 0.007 | 0.581 ± 0.029
34 | CGUGCA | 0.438 ± 0.026 | 1.932 ± 0.0054 | 1.72 ± 0.03 | 0.662 ± 0.033
35 | CGUGCU | 0.599 ± 0.1 | 1.909 ± 0.0056 | 1.899 ± 0.0073 | 0.518 ± 0.04
36 | AGUACG | 0.173 ± 0.058 | 1.84 ± 0.022 | 1.38 ± 0.052 | 0.423 ± 0.086
37 | UGGCUU | 0.674 ± 0.017 | 1.97 ± 0.02 | 1.94 ± 0.03 | 0.66 ± 0.06
38 | UGGCUG | 0.218 ± 0.011 | 2.02 ± 0.0097 | 1.95 ± 0.04 | 0.298 ± 0.023
39 | UGGUCA | 0.761 ± 0.06 | 1.97 ± 0.043 | 1.84 ± 0.025 | 0.607 ± 0.11
40 | UGGUCG | -0.282 ± 0.14 | 1.924 ± 0.012 | 1.79 ± 0.06 | -0.0942 ± 0.036
41 | GGGGGU | 0.334 ± 0.062 | 1.935 ± 0.0072 | 1.86 ± 0.02 | 0.316 ± 0.064
42 | GGGGGC | 0.564 ± 0.051 | 1.85 ± 0.06 | 1.51 ± 0.023 | 0.468 ± 0.037
43 | AGGUUG | 0.0275 ± 0.013 | 1.88 ± 0.021 | 1.48 ± 0.042 | 0.557 ± 0.036
44 | UGUACA | 0.848 ± 0.044 | 1.919 ± 0.018 | 1.85 ± 0.066 | 0.78 ± 0.076
45 | UGUACU | 0.71 ± 0.019 | 1.933 ± 0.012 | 1.8501 ± 0.00062 | 0.66 ± 0.018
46 | CGGUUC | 0.133 ± 0.2 | 1.964 ± 0.01 | 1.79 ± 0.066 | 0.211 ± 0.024
47 | AGUCGG | 0.0517 ± 0.00086 | 1.85 ± 0.049 | 1.48 ± 0.085 | 0.38 ± 0.078
48 | AGUCGA | 0.423 ± 0.022 | 1.95 ± 0.035 | 1.61 ± 0.058 | 0.654 ± 0.0092

Row | Variant | FACS-Seq fitted mean (log10) (hypoxanthine [1]) | normalized RNA/DNA level with ligand (log10) (hypoxanthine [2]) | normalized RNA/DNA level without ligand (log10) (hypoxanthine [3]) | FACS-Seq fitted mean (log10) (hypoxanthine [4])
49 | AGUCGU | 0.577 ± 0.17 | 1.903 ± 0.013 | 1.68 ± 0.029 | 0.561 ± 0.15
50 | GGGUUA | 0.574 ± 0.047 | 1.99 ± 0.018 | 1.845 ± 0.013 | 0.558 ± 0.01
51 | GGGUUG | 0.034 ± 0.047 | 1.92 ± 0.024 | 1.64 ± 0.073 | 0.486 ± 0.065
52 | GGUCCA | 0.354 ± 0.029 | 1.96 ± 0.023 | 1.94 ± 0.056 | 0.465 ± 0.041
53 | UGUUUG | -0.153 ± 0.036 | 2.04 ± 0.037 | 1.93 ± 0.035 | 0.0349 ± 0.0062
54 | AGGCUG | 0.279 ± 0.011 | 2 ± 0.04 | 1.78 ± 0.045 | 0.333 ± 0.014
55 | AGGCUA | 0.509 ± 0.0085 | 1.93 ± 0.031 | 1.811 ± 0.0095 | 0.617 ± 0.057
56 | UGUGGA | -0.645 ± 0.11 | 1.91 ± 0.06 | 1.52 ± 0.12 | -0.186 ± 0.061
57 | AGGUGA | 0.38 ± 0.046 | 1.86 ± 0.028 | 1.46 ± 0.04 | 0.623 ± 0.045
58 | UGUCCU | 0.984 ± 0.042 | 1.95 ± 0.091 | 1.93 ± 0.039 | 0.87 ± 0.054
59 | UGUCCC | 0.383 ± 0.13 | 2 ± 0.12 | 1.935 ± 0.013 | 0.29 ± 0.068
60 | GGUACG | 0.173 ± 0.027 | 1.88 ± 0.031 | 1.49 ± 0.016 | 0.506 ± 0.019
61 | GGUACU | 0.2 ± 0.042 | 1.97 ± 0.083 | 1.93 ± 0.047 | 0.258 ± 0.029
62 | UGUUAU | -0.225 ± 0.19 | 1.89 ± 0.0069 | 1.817 ± 0.0095 | -0.287 ± 0.069
63 | GGUUGC | -0.0647 ± 0.067 | 1.92 ± 0.037 | 1.52 ± 0.035 | 0.345 ± 0.043
64 | GGUUGG | -0.0305 ± 0.021 | 1.83 ± 0.074 | 1.27 ± 0.014 | 0.558 ± 0.021
65 | UGUCUA | -0.725 ± 0.058 | 1.95 ± 0.067 | 1.92 ± 0.02 | -0.723 ± 0.08
66 | GGUGCU | 0.444 ± 0.03 | 2.022 ± 0.015 | 1.977 ± 0.015 | 0.475 ± 0.041
67 | GGUGCG | 0.452 ± 0.027 | 1.91 ± 0.056 | 1.58 ± 0.094 | 0.656 ± 0.018
68 | GGUGCC | 0.798 ± 0.026 | 2.009 ± 0.0084 | 1.97 ± 0.04 | 0.76 ± 0.035
69 | GGUUAG | 0.17 ± 0.041 | 1.726 ± 0.017 | 1.383 ± 0.0095 | 0.458 ± 0.03
70 | GGUUAC | 0.247 ± 0.029 | 1.96 ± 0.064 | 1.8 ± 0.066 | 0.276 ± 0.0034
71 | UGUCGU | 0.313 ± 0.02 | 1.91 ± 0.036 | 1.61 ± 0.041 | 0.591 ± 0.008
72 | UGUCGG | 0.0812 ± 0.15 | 1.9 ± 0.04 | 1.543 ± 0.01 | 0.151 ± 0.019
